Substitutions are numbered along the chain they refer to. In names and notes the source's numbering stands.
Assays:
[1] = Stir-induced aggregation (solubility) assay; assay type: physicochemical; conditions: 40 μg/mL, pH 7.4, stirred 400 rpm
Method: Solubility/physical stability of human BMP7 protein and human BMP7 protein variants may be measured in a stir-induced aggregation assay. Proteins are diluted to 40 μg/mL with assay buffer (50 mM sodium phosphate, 150 mM NaCl, pH 7.4) to a total volume of 2 mL. This solution may be put in a 7 mL glass vial containing one ‘flea’ stir bar and stirred at 400-rpm at room temperature. At periodic intervals (typically 0, 30, 60, 90, 120, and 150 minutes) a 150 μL aliquot may be withdrawn and centrifuged for 2 minutes at 16,000×g in a 1.5 mL tube. The supernatant (120 μL) may be transferred to an HPLC vial and the amount of remaining protein may be determined by reversed-phase HPLC under the following conditions: Zorbax C8 SB-300® column (3.5 micron, 4.6×50 mm), mobile phase: A buffer=0.1% TFA (v/v) in water, B buffer=0.085% TFA (v/v) in acetonitrile; flow rate at 1 mL/minute; column heated to 60° C.; autosampler cooled to 10° C., 214 nm UV detection, 80 μL injection, and 20 minute run time using the linear gradient indicated below. From the HPLC chromatograms (not shown) the protein peak or peaks (e.g., mature and pro domains) are integrated and percent change from initial peak area may be calculated.

Follistatin = target: T1, Follistatin (Homo sapiens, UniProt P19883); assay: BMP inhibitor activity, hepcidin promoter luciferase: Follistatin; assay type: cell-based
T1 construct: made in house
T1 sequence (P19883 30-344, species assumed): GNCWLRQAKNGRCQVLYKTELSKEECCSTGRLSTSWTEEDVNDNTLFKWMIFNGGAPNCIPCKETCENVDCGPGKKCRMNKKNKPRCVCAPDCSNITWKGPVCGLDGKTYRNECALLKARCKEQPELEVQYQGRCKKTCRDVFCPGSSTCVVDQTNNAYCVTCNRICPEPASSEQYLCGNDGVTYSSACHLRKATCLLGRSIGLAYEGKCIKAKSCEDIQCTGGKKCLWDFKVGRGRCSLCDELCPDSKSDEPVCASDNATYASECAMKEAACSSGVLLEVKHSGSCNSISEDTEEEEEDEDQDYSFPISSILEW
Method: (§1) Briefly described, Hep3B2 cells stably transfected with a hepcidin promoter luciferase construct (hereinafter, referred to as Hep3B2_HepPro_luc cells) were used for BMP inhibitor experiments. Hep3B2_HepPro_luc cells may be plated at 30,000 cells per well in a tissue culture treated 96 well plate in DMEM (Hyclone) 5% FBS (Gibco) supplemented with non-essential amino acids (Hyclone) and 200 μg/ml gentecin (Hyclone) for 24 hours. Cells were then starved in OMEM+0.2% BSA for 5 hours. Cells were treated with a mixture of human BMP7 proteins and variants thereof in OMEM (Gibco)+0.2% BSA (Gibco) for 18 hours then developed for luciferase activity utilizing Luciferase reporter Gene Assay Kit (Roche). BMP7 proteins were added at concentrations in the linear range of the assay, at 1 nM and 100 pM. Inhibitors were added at various concentrations in molar excess of the particular BMP7 protein being tested. All BMP inhibitors except Follistatin were purchased from R&D Systems. Follistatin and BMP7 proteins and variants thereof were generated at Eli Lilly and Company.

Chordin-like 2 = target: T2, Chordin-like 2 (Homo sapiens, UniProt Q6WN34); assay: BMP inhibitor activity, hepcidin promoter luciferase: Chordin-like 2; assay type: cell-based
T2 construct: purchased R&D Systems
T2 sequence (Q6WN34 26-429): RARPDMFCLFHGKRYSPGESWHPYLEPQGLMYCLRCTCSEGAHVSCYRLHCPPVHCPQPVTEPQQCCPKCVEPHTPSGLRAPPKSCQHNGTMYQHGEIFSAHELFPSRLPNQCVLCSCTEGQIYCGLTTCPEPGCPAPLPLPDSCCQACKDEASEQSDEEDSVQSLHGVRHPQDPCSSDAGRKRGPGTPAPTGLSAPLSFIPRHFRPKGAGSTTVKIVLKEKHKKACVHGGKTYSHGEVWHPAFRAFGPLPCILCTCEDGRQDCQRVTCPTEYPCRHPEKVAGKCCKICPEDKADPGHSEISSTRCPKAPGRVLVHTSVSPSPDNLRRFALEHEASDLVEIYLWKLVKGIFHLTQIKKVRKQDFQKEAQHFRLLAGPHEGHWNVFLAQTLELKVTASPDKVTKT
Method: as §1

Noggin = target: T3, Noggin (Homo sapiens, UniProt Q13253); assay: BMP inhibitor activity, hepcidin promoter luciferase: Noggin; assay type: cell-based
T3 construct: purchased R&D Systems
T3 sequence (Q13253 28-232): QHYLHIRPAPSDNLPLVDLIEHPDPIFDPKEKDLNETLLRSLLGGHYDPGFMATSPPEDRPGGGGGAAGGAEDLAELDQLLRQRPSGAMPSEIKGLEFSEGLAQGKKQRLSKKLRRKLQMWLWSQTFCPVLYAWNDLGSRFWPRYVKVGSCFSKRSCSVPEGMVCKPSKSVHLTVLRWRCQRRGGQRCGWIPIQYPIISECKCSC
Method: as §1

Chordin = assay: BMP inhibitor activity, hepcidin promoter luciferase: Chordin; assay type: cell-based
Method: as §1

Coco = target: T4, Coco (Homo sapiens, UniProt Q8N907); assay: BMP inhibitor activity, hepcidin promoter luciferase: Coco; assay type: cell-based
T4 construct: purchased R&D Systems
T4 sequence (Q8N907 23-189): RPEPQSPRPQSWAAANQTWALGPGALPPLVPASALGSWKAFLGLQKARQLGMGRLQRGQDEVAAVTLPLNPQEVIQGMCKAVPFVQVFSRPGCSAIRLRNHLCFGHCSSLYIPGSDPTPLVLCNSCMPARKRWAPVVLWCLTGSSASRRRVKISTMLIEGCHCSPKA
Method: as §1

[2] = system: rat primary articular chondrocytes (RPACs); assay: Chondrogenesis assay (pellet culture); assay type: cell-based; conditions: 2 weeks in culture
Method: The effect of wild type human mature BMP7 and variants thereof may be evaluated for differentiation of chondrocytes in an in vitro model utilizing rat primary articular chondrocytes (RPACs). To obtain RPACs, articular cartilage may be isolated from 2-3 day old rats. The cartilage may be digested with 0.4% collagenase for 2 hours and then the resultant cells may be washed with phosphate buffered saline and subsequently cultured in media containing DMEM, 10% FBS and 1% penicillin/streptomycin in humidified air with 5% CO2 at 37° C.
To assess the chondrogenic differentiation, a pellet culture system may be used. Approximately 2×10^5 cells from passage 2-3 may be placed in 1.5 ml tubes and centrifuged at 500 g for 10 minutes. The pellets may be cultured at 37° C. with 5% CO2 in 500 μl of medium. […] The media may be replaced twice per week for 2 weeks. After 2 weeks in culture, the pellets may be harvested and macroscopic analysis was performed by stereomicroscopic procedures. The images may be analyzed and the pellet sizes may be calculated in a 2-dimensional image.

[3] = molar excess 100X, Hep3B2_HepPro_luc cells, 18 hours
[4] = Chordin-like 2, molar excess 0.1X
[5] = Chordin-like 2, molar excess 1X
[6] = Chordin-like 2, molar excess 10X
[7] = Chordin-like 2, molar excess 100X, Hep3B2_HepPro_luc cells, 18 hours

For “Wild type human pro-BMP7: homodimers of wild type human mature BMP7 in a non-covalent complex with wild type human pro-domain [reference compound]”, the “Percent of Material Precipitated” value ([1]; 0 minutes) was 0%, the “Percent of Material Precipitated” value ([1]; 30 minutes) was 8% and the “Percent of Material Precipitated” value ([1]; 60 minutes) was 42%. For the same molecule, the “Percent of Material Precipitated” value ([1]; 90 minutes) was 51%, the “Percent of Material Precipitated” value ([1]; 120 minutes) was 65% and the “Percent of Material Precipitated” value ([1]; 150 minutes) was 72%. For the same molecule, the “% inhibition” value (Follistatin; molar excess 0.1X) was −10.4%, the “% inhibition” value (Follistatin; molar excess 1X) was 5.9% and the “% inhibition” value (Follistatin; molar excess 10X) was 29.5%. The “% inhibition” value (Follistatin; [3]) was 79.8%, the “% inhibition” value (Chordin-like 2; [4]) was 8.9% and the “% inhibition” value (Chordin-like 2; [5]) was 55.9%. The “% inhibition” value (Chordin-like 2; [6]) was 87.5%, the “% inhibition” value (Chordin-like 2; [7]) was 88.2% and the “% inhibition” value (Noggin; molar excess 0.1X) was −5.3%. For the same molecule, the “% inhibition” value (Noggin; molar excess 1X) was 24.8%, the “% inhibition” value (Noggin; molar excess 10X) was 84.8% and the “% inhibition” value (Noggin; [3]) was 87.3%. The “% inhibition” value (Chordin; molar excess 0.1X) was −15.1%, the “% inhibition” value (Chordin; molar excess 1X) was −2.2% and the “% inhibition” value (Chordin; molar excess 10X) was 18.9%. The “% inhibition” value (Chordin; [3]) was 76.5%, the “% inhibition” value (Coco; molar excess 0.1X) was −10.2% and the “% inhibition” value (Coco; molar excess 1X) was 4.0%. The “% inhibition” value (Coco; molar excess 10X) was 17.4% and the “% inhibition” value (Coco; [3]) was 81.6%.

B1: Human mature BMP7 protein variant F9 (SEQ ID NO: 8): homodimer wherein each monomeric subunit has SEQ ID NO: 8 (Y65G/I86L/F93V/N110G/Y128W), disulfide linked (protein)
chain: STGSKQRSQNRSKTPKNQEALRMANVAENSSSDQRQACKKHELYVSFRDLGWQDWIIAPEGYAAGYCEGECAFPLNSYMNATNHALVQTLVHVINPETVPKPCCAPTQLGAISVLYFDDSSNVILKKWRNMVVRACGCH
modifications: homodimer, disulfide linked
With B1 the “Percent of Material Precipitated” value ([1]; 0 minutes) was 0%, the “Percent of Material Precipitated” value ([1]; 30 minutes) was 7% and the “Percent of Material Precipitated” value ([1]; 60 minutes) was 23%. For the same molecule, the “Percent of Material Precipitated” value ([1]; 90 minutes) was 24%, the “Percent of Material Precipitated” value ([1]; 120 minutes) was 37% and the “Percent of Material Precipitated” value ([1]; 150 minutes) was 39%. The “Pellet Size” value ([2]; Treatment 0.014 nM) was 0.67 ± 0.16 mm^2, the “Pellet Size” value ([2]; Treatment 0.14 nM) was 1.56 ± 0.46^a mm^2 and the “Pellet Size” value ([2]; Treatment 1.4 nM) was 2.61 ± 0.18^a mm^2. For the same molecule, the “% inhibition” value (Follistatin; molar excess 0.01X) was 3.9%, the “% inhibition” value (Follistatin; molar excess 0.1X) was 10.6% and the “% inhibition” value (Follistatin; molar excess 1X) was 10.0%. For the same molecule, the “% inhibition” value (Follistatin; molar excess 10X) was 23.8%, the “% inhibition” value (Chordin-like 2; Chordin-like 2, molar excess 0.01X) was −1.5% and the “% inhibition” value (Chordin-like 2; [4]) was −3.2%. For the same molecule, the “% inhibition” value (Chordin-like 2; [5]) was −1.0%, the “% inhibition” value (Chordin-like 2; [6]) was 9.0% and the “% inhibition” value (Noggin; molar excess 0.01X) was −2.6%. For the same molecule, the “% inhibition” value (Noggin; molar excess 0.1X) was −7.2%, the “% inhibition” value (Noggin; molar excess 1X) was −6.9% and the “% inhibition” value (Noggin; molar excess 10X) was −1.2%. For the same molecule, the “% inhibition” value (Chordin; molar excess 0.01X) was 3.7%, the “% inhibition” value (Chordin; molar excess 0.1X) was 6.8% and the “% inhibition” value (Chordin; molar excess 1X) was 5.2%. For the same molecule, the “% inhibition” value (Chordin; molar excess 10X) was 5.6%, the “% inhibition” value (Coco; molar excess 0.01X) was 2.3% and the “% inhibition” value (Coco; molar excess 0.1X) was 7.0%. For the same molecule, the “% inhibition” value (Coco; molar excess 1X) was 7.3% and the “% inhibition” value (Coco; molar excess 10X) was 28.5%.

B2: Wild type human mature BMP7 (SEQ ID NO: 2): dimer of two glycosylated, 139 amino acid disulfide-linked proteins of about 35 kDa, SEQ ID NO: 2 (protein, listed as Homo sapiens)
chain: B1 chain with G65Y, L86I, V93F, G110N, W128Y
modifications: disulfide-linked glycosylated homodimer
In the case of B2, the “Percent of Material Precipitated” value ([1]; 0 minutes) is reported as 100%, the “Percent of Material Precipitated” value ([1]; 30 minutes) is reported as 100% and the “Percent of Material Precipitated” value ([1]; 60 minutes) is reported as 100%. The “Percent of Material Precipitated” value ([1]; 90 minutes) was 100%, the “Percent of Material Precipitated” value ([1]; 120 minutes) was 100% and the “Percent of Material Precipitated” value ([1]; 150 minutes) was 100%. The “Pellet Size” value ([2]; Treatment 0.02 nM) was 0.64 ± 0.15 mm^2, the “Pellet Size” value ([2]; Treatment 0.2 nM) was 0.70 ± 0.03 mm^2 and the “Pellet Size” value ([2]; Treatment 2 nM) was 0.83 ± 0.13 mm^2. For the same molecule, the “% inhibition” value (Follistatin; molar excess 0.1X) was −16.6%, the “% inhibition” value (Follistatin; molar excess 1X) was −11.9% and the “% inhibition” value (Follistatin; molar excess 10X) was 21.1%. For the same molecule, the “% inhibition” value (Follistatin; [3]) was 54.7%, the “% inhibition” value (Chordin-like 2; [4]) was −13.7% and the “% inhibition” value (Chordin-like 2; [5]) was 49.0%. The “% inhibition” value (Chordin-like 2; [6]) was 69.5%, the “% inhibition” value (Chordin-like 2; [7]) was 71.9% and the “% inhibition” value (Noggin; molar excess 0.1X) was −12.2%. The “% inhibition” value (Noggin; molar excess 1X) was 36.7%, the “% inhibition” value (Noggin; molar excess 10X) was 72.8% and the “% inhibition” value (Noggin; [3]) was 73.7%. The “% inhibition” value (Chordin; molar excess 0.1X) was −13.1%, the “% inhibition” value (Chordin; molar excess 1X) was −9.2% and the “% inhibition” value (Chordin; molar excess 10X) was 21.3%. For the same molecule, the “% inhibition” value (Chordin; [3]) was 70.9%, the “% inhibition” value (Coco; molar excess 0.1X) was −23.6% and the “% inhibition” value (Coco; molar excess 1X) was −25.9%. For the same molecule, the “% inhibition” value (Coco; molar excess 10X) was 37.6% and the “% inhibition” value (Coco; [3]) was 77.4%.

Reference: patent US11466066B2, “Variants of human BMP7 protein” (ELI LILLY AND COMPANY, priority 2017, dated 2022)
